{"source": "paper doi:10.1101/2022.10.18.512811", "about": "(bioRxiv, 2022)", "molecules": {"B1": {"name": "C-terminally His-tagged WT NlpE expressed from pTrc99A (natural protein, E. coli, UniProt P40710 21-236, looked up)", "chain": "CNNRAEVDTLSPAQAAELKPMPQSWRGVLPCADCEGIETSLFLEKDGTWVMNERYLGAREEPSSFASYGTWARTADKLVLTDSKGEKSYYRAKGDALEMLDREGNPIESQFNYTLEAAQSSLPMTPMTLRGMYFYMADAATFTDCATGKRFMVANNAELERSYLAARGHSEKPVLLSVEGHFTLEGNPDTGAPTKVLAPDTAGKFYPNQDCSSLGQ", "modifications": "lipid-modified N-terminal cysteine (Cys21)"}, "B2": {"name": "purified, soluble, C-terminal His×6-tagged NlpE (natural protein, E. coli, UniProt P40710 21-236, looked up)", "chain": "B1 chain"}}, "key": {"[1]": {"target": "His-tagged NlpE N-terminal domain (E. coli)", "test": "cross-linking"}, "[2]": {"target": "the molecule itself", "test": "dimer band on denaturing SDS-PAGE"}, "[3]": {"target": "the molecule itself", "test": "dimer band on denaturing SDS-PAGE", "remark": "listed apart in the source"}}, "note": "Read-outs that look alike come from different tables or passages of the source."}
{"molecule": "His-tagged NlpE N-terminal domain (domain or fragment)", "values": [{"measurement": "stoichiometry N", "setting": "[1]", "value": 2}]}
{"molecule": "B1", "values": [{"measurement": "stoichiometry N", "setting": "[2]", "value": 2}]}
{"molecule": "B2", "values": [{"measurement": "stoichiometry N", "setting": "[3]", "value": 2}]}
